Reference: the supplement of paper PMC9233669
This sample holds only a part of the variants without activity.

How the values were obtained:
biotinyl-Phe-oxazolone = experiment: self-aminoacylation, catalytic enhancement (BFO) (fold over background); higher = more active; k-Seq, kA / k0A0; sequences stand for … in GGGAAUGGAUCCACAUCUACGAAUUC…UUCACUGCAGACUUGACGAAGCUG
Method in brief: (§1)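 Mutagenized RNA pools with a 21-nt variable region (0.43 μM) reacted with each biotinyl-aminoacyl-oxazolone at 2–1250 μM. Reactions ran in 50 μL HEPES/NaCl/KCl/MgCl2/CaCl2 buffer with 5% acetonitrile, pH 6.9–7.0, for 90 minutes at room temperature. Streptavidin-captured RNA was quantified by triplicate qPCR and Illumina sequencing, and per-sequence fraction reacted was fit to a pseudo-first-order model with 1000 bootstraps. Catalytic enhancement is median kA divided by the uncatalyzed rate, the low-activity peak of a bimodal Gaussian fit.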

biotinyl-Ile-oxazolone = experiment: self-aminoacylation, catalytic enhancement (BIO) (fold over background); higher = more active; k-Seq, kA / k0A0; sequences stand for … in GGGAAUGGAUCCACAUCUACGAAUUC…UUCACUGCAGACUUGACGAAGCUG
Method in brief: as §1

biotinyl-Val-oxazolone = experiment: self-aminoacylation, catalytic enhancement (BVO) (fold over background); higher = more active; k-Seq, kA / k0A0; sequences stand for … in GGGAAUGGAUCCACAUCUACGAAUUC…UUCACUGCAGACUUGACGAAGCUG
Method in brief: as §1

biotinyl-Leu-oxazolone = experiment: self-aminoacylation, catalytic enhancement (BLO) (fold over background); higher = more active; k-Seq, kA / k0A0; sequences stand for … in GGGAAUGGAUCCACAUCUACGAAUUC…UUCACUGCAGACUUGACGAAGCUG
Method in brief: as §1

biotinyl-Trp-oxazolone = experiment: self-aminoacylation, catalytic enhancement (BWO) (fold over background); higher = more active; k-Seq, kA / k0A0; sequences stand for … in GGGAAUGGAUCCACAUCUACGAAUUC…UUCACUGCAGACUUGACGAAGCUG
Method in brief: as §1

biotinyl-Met-oxazolone = experiment: self-aminoacylation, catalytic enhancement (BMO) (fold over background); higher = more active; k-Seq, kA / k0A0; sequences stand for … in GGGAAUGGAUCCACAUCUACGAAUUC…UUCACUGCAGACUUGACGAAGCUG
Method in brief: as §1

Row | Sequence | self-aminoacylation (biotinyl-Phe-oxazolone) | self-aminoacylation (biotinyl-Ile-oxazolone) | self-aminoacylation (biotinyl-Val-oxazolone) | self-aminoacylation (biotinyl-Leu-oxazolone) | self-aminoacylation (biotinyl-Trp-oxazolone) | self-aminoacylation (biotinyl-Met-oxazolone)
1 | AAGUUGGCUAAUAGUCGCAAU [Fam3.1 aminoacylation ribozyme variant] | 2.72 | 2.15 | 1.7 | 1.71 | 2.93 | 1.32
2 | AAGUUGGCUAAUAGUCGCACG [Fam3.1 aminoacylation ribozyme variant] | 2.62 | 1.35 | 1.63 | 1.81 | 2.11 | 1.61
3 | AAGUUGGCUAAUAGUCGGAAG [Fam3.1 aminoacylation ribozyme variant] | 2.31 | 1.47 | 1.48 | 1.1 | 1.15 | 1.22
4 | AAGUUGGCUAAUAGUUGCAAG [Fam3.1 aminoacylation ribozyme variant] | 1.86 | 1.39 | 1.29 | 1.09 | 1.92 | 1.53
5 | AAGUUGGCUAAUAUUCGCAAG [Fam3.1 aminoacylation ribozyme variant] | 2.07 | 2.32 | 2.09 | 2.11 | 3.02 | 1.85
6 | AAGUUUACUAAGAGUCGCAAG [Fam3.1 aminoacylation ribozyme variant] | 1.93 | 1.47 | 1.36 | 1.36 | 1.69 | 1.37
7 | AAGUUUACUAAUACUCGCAAG [Fam3.1 aminoacylation ribozyme variant] | 1.55 | 1.26 | 1.18 | 1.06 | 1.37 | 1.18
8 | AAGUUUACUAAUAGUCGCAAU [Fam3.1 aminoacylation ribozyme variant] | 3.51 | 1.86 | 1.6 | 1.42 | 1.99 | 1.48
9 | AAGUUUACUAAUAGUCGCGAG [Fam3.1 aminoacylation ribozyme variant] | 2.41 | 1.83 | 1.22 | 1.91 | 1.54 | 1.59
10 | AAGUUUACUAAUAUUCGCAAG [Fam3.1 aminoacylation ribozyme variant] | 2.42 | 1.67 | 1.66 | 1.44 | 2.23 | 1.31
11 | AAGUUUACUAGUAGUCGCAAG [Fam3.1 aminoacylation ribozyme variant] | 1.48 | 1.44 | 1.14 | 1.29 | 1.29 | 1.53
12 | AAGUUUAGUAAUAGUCGCAAG [Fam3.1 aminoacylation ribozyme variant] | 3.24 | 1.85 | 1.55 | 1.71 | 1.23 | 1.75
13 | AAGUUUCCUAAUACUCGCAAG [Fam3.1 aminoacylation ribozyme variant] | 0.584 | 0.862 | 0.889 | 0.891 | 0.555 | 1
14 | AAGUUUCCUAAUAGUAGCAAG [Fam3.1 aminoacylation ribozyme variant] | 1.11 | 1.28 | 1.05 | 1.12 | 0.808 | 1.17
15 | AAGUUUCCUAAUAGUCGAAAG [Fam3.1 aminoacylation ribozyme variant] | 2.75 | 1.45 | 1.14 | 1.44 | 1.76 | 1.1
16 | AAGUUUCCUAAUAGUCGCGAG [Fam3.1 aminoacylation ribozyme variant] | 3.66 | 2.47 | 2.48 | 2.26 | 2.04 | 2.04
17 | AAGUUUCCUAAUAUUCGCAAG [Fam3.1 aminoacylation ribozyme variant] | 0.549 | 0.935 | 0.841 | 0.935 | 0.649 | 0.987
18 | AAGUUUCCUAGUAGUCGCAAG [Fam3.1 aminoacylation ribozyme variant] | 1.27 | 1.12 | 1.44 | 1.06 | 0.668 | 1.2
19 | AAGUUUCCUAUUAGUCGCAAG [Fam3.1 aminoacylation ribozyme variant] | 1.87 | 1.29 | 1.32 | 1.22 | 1.35 | 1.24
20 | AAGUUUGAGAAUAGUCGCAAG [Fam3.1 aminoacylation ribozyme variant] | 2.05 | 1.48 | 1.29 | 1.25 | 1.59 | 1.2
21 | AAGUUUGAUAAUAGACGCAAG [Fam3.1 aminoacylation ribozyme variant] | 0.787 | 0.364 | 0.418 | 0.311 | 0.331 | 0.346
22 | AAGUUUGAUAAUAGUCGGAAG [Fam3.1 aminoacylation ribozyme variant] | 0.778 | 0.514 | 0.572 | 0.536 | 0.436 | 0.556
23 | AAGUUUGAUAAUCGUCGCAAG [Fam3.1 aminoacylation ribozyme variant] | 1.99 | 1.54 | 1.13 | 1.26 | 1.43 | 1.25
24 | AAGUUUGCAAAUAGUCACAAG [Fam3.1 aminoacylation ribozyme variant] | 0.954 | 1.05 | 0.982 | 0.949 | 0.887 | 1.11
25 | AAGUUUGCAAAUAGUCGCAAA [Fam3.1 aminoacylation ribozyme variant] | 0.845 | 1.67 | 1.62 | 1.79 | 1.21 | 1.52
26 | AAGUUUGCAAAUAGUCGCAAG [Fam3.1 aminoacylation ribozyme variant] | 1.03 | 0.763 | 0.752 | 0.665 | 0.789 | 0.734
